In patent US20250134019A1, “TRIKETONE DIOXYGENASE VARIANTS FOR HERBICIDE TOLERANCE” (Monsanto Technology LLC, priority 2022, published 2025):
Substitutions are numbered along the chain they refer to. In names and notes the source's numbering stands.

B1: D08: Os.TDO variant D08, SEQ ID NO:18, 20 amino acid changes relative to Os.TDO (protein)
chain: MADESWRAPALVQELAAKGVEEPPSRYLLREQDRPDVKLVAAELPEPIPVVDLGRLDGAEEATKLRVALQNWGFFLLTNHGIEASLMDDVMNLSREFFNQPIERKQKFSNLIDGKHFQIEGYGTDRVVTQDQVLDWSDRLHLRVEPKEEQDLAFWPDHPESFRDVLHKYASGCKRIRDDIIQAMAKLLELDEDYFLDRFNEAPTFARFNYYPPCPRPDLVFGIRPHSDGGLLTILLVDKDVGGLQVQRDGKWSNVPATPHTLLINLGDTMEVMSNGIFKSPVHRVVTNAEKERISLAMLYSVNDEKDIEPAAGLLDENRPARYRKVSVEEFRAGIFGKFSRGERYIDSLRI
modifications: TDO variant sequence
B2: TDO_9: Os.TDO variant, SEQ ID NO:44, F199L-K279R relative to D08; control with poor activity (protein)
chain: B1 chain with F199L, K279R
modifications: TDO variant sequence

Legend:
transgenic cotton plants = assay: Mesotrione treatment of cotton plants expressing TDO variants, crop injury; format: in vivo; conditions: for Crop Injury (%), 210 g/ha (2X) Mesotrione / Crop Injury (%), 840 g/ha (8X) Mesotrione: R2 cotton sprayed at V3
Experimental: Cotton is a crop of interest that is often exposed to high temperature growing conditions and thus, selected TDO variants were tested in cotton. Three TDO variants, D08, TDO_6, and TDO_8 were transformed into cotton (along with the Os.TDO control) using similar expression elements in single-cassette vectors or as part of multi-cassette vectors. R2 transgenic cotton plants were then screened for tolerance to mesotrione. Sixteen plants from two events each per construct were sprayed with two rates (2X and 8X) of mesotrione at V3 stage under normal (80° F.) and hot (100° F.) growing conditions. In addition, the effect of heat treatment on TDO accumulation in cotton plants were measured by ELISA. Cotton plants were planted and grown under normal greenhouse conditions (80° F. day/70° F. night) until V3 growth stage. Half of the plants were then moved to a higher temperature growth chamber (100° F. day/82° F. night) for the heat treatment, whereas the remaining half of the plants stayed in the same greenhouse (80° F. day/70° F. night). At day 3 after the plants were placed under different temperature conditions, leaf samples were collected for TDO protein measurement. The plants in 100° F. growth chamber and in 80° F. greenhouse were both sprayed with 2X mesotrione (210 g a.i./ha). Leaf samples were collected again 7 days after mesotrione treatment (DAT: Days After Treatment) for protein assay. Table 5 compares protein levels of the TDO variants in transgenic cotton plants grown under the two tested conditions. The protein levels for the TDO variants were measured at three time points for plants: 1) just before entering the high temperature treatment, 2) three days following placement into control (normal growth temperature) or high temperature (100° F.), and 3) 7 days after a 2X mesotrione spray.

[1] = test system: transgenic soybean plants; assay: Field testing of variant D08 for mesotrione tolerance; format: in vivo; conditions: field setting, no control of temperature
Experimental: Since this testing was conducted in the field, there was no control on the temperature ranges the plants were exposed to.

[2] = test system: transgenic soybean plants; assay: TDO protein level (ELISA) and mesotrione injury of transgenic soybean at normal vs elevated temperature; format: in vivo; conditions: elevated temperature (99° F.)
Experimental: Os.TDO-transgenic soybean plants and wild-type control plants were grown at 80° F. until V2 growth stage, then half of the plants were transferred to 99° F. After 3 days, leaf samples were harvested to determine TDO protein levels, and plants were then treated with 2X and 8X rates of mesotrione. Crop injury ratings were taken 11 days after mesotrione treatment. […] The black bars represent TDO protein levels in parts per million per dry weight; the gray bars represent plant injury rate (%) to 2X and 8X mesotrione treatments.
Soybeans were planted and grown under typical greenhouse conditions (85° F. day, 75° F. night) until approximately V3 growth stage. At that time, half of the plants were moved to a higher temperature growth chamber (99° F. day, 82° F. night; 60% relative humidity) for three days prior to leaf sample collection and a spray application of 4X rate mesotrione. Mesotrione was applied to both greenhouse and growth chamber plants. Visual injury ratings were taken at 7 days after treatment. […] The gray bars represent mesotrione injury ratings at 85° F. and the black bars represent mesotrione injury ratings at 99° F. for these transgenic plants.
The TDO variants were grown at 85° F. (gray) vs 99° F. (black). […]
The enzyme activity was measured at room temperature for the hydroxylation of mesotrione, and was defined as Kcat/Km, M-1 sec-1 (specificity constant). […]

[3] = test system: transgenic soybean plants; assay: Response of R0 soybean plants transformed with Round 2 TDO variants to mesotrione; format: in vivo; conditions: R0 transgenic soybean sprayed with mesotrione
Description: The next set of experiments was focused on determining if the balance between improved enzyme stability could outweigh a reduction in activity observed at optimal temperatures in soybean plants. […] To test this hypothesis, the eight variants from Round 2 biochemical analysis described in the preceding paragraph were transformed into soybean through Agrobacterium-mediated transformation, along with three controls. One of the controls (TDO_9) was a variant from the high-throughput screens that had poor activity. Two other controls were the D08 variant and the Os.TDO. R0 transgenic soybean plants were sprayed with the mesotrione herbicide to screen for herbicide tolerance. […] These included the Os.TDO control, the D08 variant and one Round 2 variant. The plants were scored for percent injury as described in the previous examples.

[4] = Enzyme activity (Kcat/Km) for hydroxylation of mesotrione at room temperature; format: biochemical; conditions: Round 2 high-throughput screens
Experimental: The enzyme activity was expressed as Kcat/Km, M-1 sec-1. […] The enzyme activity was measured at room temperature for the hydroxylation of mesotrione, and was defined as Kcat/Km, M-1 sec-1 (specificity constant). Of these variants, four were tested in soybean plants. […] TDO activity was measured by the second hydroxylation of mesotrione. For routine activity measurements of TDO and determining the kinetic properties of the second hydroxylation, the continuous change in […], which is specific to the second hydroxylation and subsequent non-enzymatic water removal (i.e. the conversion of hydroxy-mesotrione to oxy-mesotrione), was monitored. […] The reaction proceeded until the maximum […] was obtained (usually 20-120 minutes depending upon the concentration of mesotrione) and the linear portion of the curve was determined by visual inspection. […] The reaction mixtures were analyzed by HPLC and mass spectrophotometry. By product conversation followed by peak integration on HPLC, a linear plot was obtained and the extinction co-efficient delta between the substrate (mesotrione) and the second product (oxy-mesotrione) was obtained according to the equation […]=(εp-εs)*bΔp where […] is the change of absorbance at 330 nm and b is the light path.

Molecule	Crop Injury (%), 210 g/ha (2X) Mesotrione (transgenic cotton plants; Under 80° F.) [%]	Crop Injury (%), 840 g/ha (8X) Mesotrione (transgenic cotton plants; Under 80° F.) [%]	Crop Injury (%), 210 g/ha (2X) Mesotrione (transgenic cotton plants; Under 100° F.) [%]	Crop Injury (%), 840 g/ha (8X) Mesotrione (transgenic cotton plants; Under 100° F.) [%]	injury rates relative to Os.TDO controls (transgenic cotton plants; cotton at the higher temperature)	tolerance to mesotrione spray treatment [1]	injury ratings after mesotrione application relative to Os.TDO control [2]	R0 % Injury [3] [%]	activity in high-throughput screens [4]
B1	0	0	0	0	trending even lower than the Os.TDO controls	good tolerance	possibly trending lower injury relative to the Os.TDO control		
B2								36	poor activity
